According to patent US20220363770A1 (Amgen, published 2022):
Where a chain is given by its changes, count along the chain named. Names and notes keep the numbering of the source. Each block holds one binder with its values, some of them ahead of it.

Assays:
[1] = target: T1, human PAC1 receptor on SH-SY5Y (CRL-2266) cells (human, UniProt P41586 24-468); assay: cell-based or functional assay
T1 sequence: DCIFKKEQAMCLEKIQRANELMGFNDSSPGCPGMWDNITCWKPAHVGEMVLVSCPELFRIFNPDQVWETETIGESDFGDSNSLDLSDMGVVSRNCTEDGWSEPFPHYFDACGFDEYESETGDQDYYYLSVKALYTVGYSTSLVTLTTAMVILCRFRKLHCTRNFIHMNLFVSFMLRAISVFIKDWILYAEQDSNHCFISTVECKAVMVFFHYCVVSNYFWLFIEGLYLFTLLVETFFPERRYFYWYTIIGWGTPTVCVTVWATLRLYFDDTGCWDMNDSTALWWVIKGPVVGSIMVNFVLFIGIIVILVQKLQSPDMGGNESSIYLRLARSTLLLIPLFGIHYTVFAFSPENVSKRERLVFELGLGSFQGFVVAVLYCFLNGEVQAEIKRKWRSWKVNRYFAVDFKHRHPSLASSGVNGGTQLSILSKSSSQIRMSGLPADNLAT

[2] = target: human CGRP receptor (human CRLR / human RAMP1 heterodimer) on SK-N-MC (HTB-10) cells (human, UniProt Q16602 23-461; O60894 27-148); assay: cell-based or functional assay
[3] = target: T2, cynomolgus monkey CGRP receptor (cynomolgus monkey, UniProt A0A2K5VQ71 34-472); assay: yeast-displayed Fab, FACS, detergent-solubilized lysate of cynomolgus CGRP receptor/HEK cells vs blank cells
T2 construct: whole, on cells; Presented as detergent-solubilized lysate of HEK cells expressing the cynomolgus receptor; also called Cyno CGRP Receptor; Cynomolgus Monkey CGRP Receptor/HEK detergent-solubilized cell lysate

[4] = target: T3, human CGRP receptor extracellular domain (ECD) (human, UniProt Q16602 23-138; O60894 27-117); assay: yeast-displayed Fab, FACS, 10 nM human CGRP receptor ECD
T3 construct: also called CGRP receptor ECD; human CGRP receptor ECD

[5] = target: T4, human CGRP receptor (human CRLR / human RAMP1 heterodimer) (human, UniProt Q16602 23-461; O60894 27-148); assay: yeast-displayed Fab, FACS, detergent-solubilized lysate of human CGRP receptor-expressing cells vs blank cells
T4 construct: Full-length receptor: endogenous on SK-N-MC (HTB-10) cells in the cAMP assay; also called hCGRP receptor on SK-N-MC (HTB-10) cells; Human CGRP Receptor/AMID detergent-solubilized cell lysate

[6] = target: T5, human PAC1 receptor extracellular domain (ECD) (human, UniProt P41586 24-153); assay: yeast-displayed Fab, FACS, 10 nM PAC1 receptor ECD
T5 construct: also called PAC1 receptor ECD; PAC1 ECD
T5 sequence: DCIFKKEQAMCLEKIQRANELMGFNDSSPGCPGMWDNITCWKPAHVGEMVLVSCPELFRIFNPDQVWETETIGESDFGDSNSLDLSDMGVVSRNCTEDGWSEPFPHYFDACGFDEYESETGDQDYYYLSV

[7] = target: T3, human CGRP receptor extracellular …; assay: yeast-displayed Fab, FACS, 1 nM human CGRP receptor ECD
[8] = target: T6, soluble CGRP receptor (extracellular domains of human CRLR and human RAMP1) (human, UniProt Q16602 23-133; O60894 26-117); assay: SPR (Biacore T200), antibody captured by goat anti-human Fc, soluble CGRP receptor as analyte, 1:1 model
T6 construct: the tag and the thrombin site are not described; also called soluble human CGRP receptor; CGRP receptor ECD
T6 sequence (Q16602 23-133, chain 1 of 2): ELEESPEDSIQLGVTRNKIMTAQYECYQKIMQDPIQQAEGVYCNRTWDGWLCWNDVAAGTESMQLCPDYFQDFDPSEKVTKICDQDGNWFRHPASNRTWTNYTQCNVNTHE
T6 sequence (O60894 26-117, chain 2 of 2): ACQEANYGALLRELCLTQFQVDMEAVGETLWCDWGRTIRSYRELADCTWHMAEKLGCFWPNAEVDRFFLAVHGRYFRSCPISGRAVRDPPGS

T4 sequence (Q16602 23-461 limits assumed, chain 1 of 2): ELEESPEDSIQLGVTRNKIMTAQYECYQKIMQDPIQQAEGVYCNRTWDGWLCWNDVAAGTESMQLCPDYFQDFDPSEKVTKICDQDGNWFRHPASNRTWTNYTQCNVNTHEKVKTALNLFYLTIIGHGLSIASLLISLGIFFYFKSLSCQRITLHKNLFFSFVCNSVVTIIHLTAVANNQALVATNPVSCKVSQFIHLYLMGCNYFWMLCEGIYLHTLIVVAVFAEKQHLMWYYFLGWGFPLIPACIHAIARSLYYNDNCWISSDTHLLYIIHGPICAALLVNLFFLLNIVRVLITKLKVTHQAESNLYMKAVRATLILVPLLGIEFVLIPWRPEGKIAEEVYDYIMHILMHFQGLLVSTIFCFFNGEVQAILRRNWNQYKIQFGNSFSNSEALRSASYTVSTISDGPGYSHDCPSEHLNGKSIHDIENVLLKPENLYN
T4 sequence (O60894 27-148 limits assumed, chain 2 of 2): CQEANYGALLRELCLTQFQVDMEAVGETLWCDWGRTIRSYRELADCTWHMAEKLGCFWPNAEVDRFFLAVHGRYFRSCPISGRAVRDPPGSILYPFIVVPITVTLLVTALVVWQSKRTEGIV
T3 sequence (Q16602 23-138 limits assumed, chain 1 of 2): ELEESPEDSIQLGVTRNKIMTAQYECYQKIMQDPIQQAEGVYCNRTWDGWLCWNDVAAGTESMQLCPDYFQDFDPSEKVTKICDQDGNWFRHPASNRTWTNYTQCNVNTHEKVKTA
T3 sequence (O60894 27-117 limits assumed, chain 2 of 2): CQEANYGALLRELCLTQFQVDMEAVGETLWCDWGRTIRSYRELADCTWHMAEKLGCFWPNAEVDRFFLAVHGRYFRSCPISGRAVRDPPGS
T2 sequence (A0A2K5VQ71 entry or part of it): as the sequence (Q16602 23-461 limits assumed, chain 1 of 2) above, with D55N, L431V counted along it
Chain of human CGRP receptor (human CRLR / human RAMP1 heterodimer) on SK-N-MC (HTB-10) cells (Q16602 23-461 limits assumed, chain 1 of 2): as the sequence (Q16602 23-461 limits assumed, chain 1 of 2) above
Chain of human CGRP receptor (human CRLR / human RAMP1 heterodimer) on SK-N-MC (HTB-10) cells (O60894 27-148 limits assumed, chain 2 of 2): as the sequence (O60894 27-148 limits assumed, chain 2 of 2) above

B5: 4E4 heavy chain D54A single-point alanine variant antibody (antibody, V domains shown)
VH: QVQLVESGGGVVQPGRSLRLSCAASGFTFSSFGMHWVRQAPGKGLEWVAVISFAGSIKYSVDSVKGRFTISRDNSKNTLFLQMNSLRAEDTAVYYCARDRLNYYDSSGYYHYKYYGMAVWGQGTTVTVSS
VL: QSVLTQPPSVSAAPGQKVTISCSGSSSNIGNNYVSWYQQLPGTAPKLLIYDNNKRPSGIPDRFSGSKSGTSTTLGITGLQTGDEADYYCGTWDSRLSAVVFGGGTKLTVLG
notes: Recombinantly expressed as a monoclonal antibody
Kd [8]: 180 nM
koff [8]: 0.0026 s⁻¹
kon [8]: 15000 M⁻¹ s⁻¹

B6: 4E4 light chain R95A single-point alanine variant antibody (antibody, V domains shown)
VH: B5 VH with A54D
VL: B5 VL with R95A
notes: as for B5
Kd [8]: 43 nM
koff [8]: 0.00077 s⁻¹
kon [8]: 18000 M⁻¹ s⁻¹

B7: 4E4 light chain K67A single-point alanine variant antibody (antibody, V domains shown)
VH: B5 VH with A54D
VL: B5 VL with K67A
notes: as for B5
Kd [8]: 29 nM
koff [8]: 0.00046 s⁻¹
kon [8]: 16000 M⁻¹ s⁻¹

B9: 4E4 heavy chain K113A single-point alanine variant antibody (antibody, V domains shown)
VH: B5 VH with A54D, K113A
VL: B5 VL
notes: as for B5
Kd [8]: 33 nM
koff [8]: 0.0006 s⁻¹
kon [8]: 18000 M⁻¹ s⁻¹

B12: 4E4 light chain Y33A single-point alanine variant antibody (antibody, V domains shown)
VH: B5 VH with A54D
VL: B5 VL with Y33A
notes: Recombinantly expressed as a monoclonal antibody; also called L-Y33A
Kd [8]: 11 nM
koff [8]: 0.00027 s⁻¹
kon [8]: 24000 M⁻¹ s⁻¹

Other lines, results leading:

Fold-improvement over 29G4v22 Ab (human PAC1 receptor IC50) [1]: 4.8 fold
Human PAC1 Receptor IC50 (nM), cell-based cAMP assay [1]: 0.86 nM
Fold-improvement over 4E4 Ab (human CGRP receptor IC50) [2]: 1.3 fold
Human CGRP Receptor IC50 (nM), cell-based cAMP assay [2]: 0.45 nM
B1: iPS:571017 (5604) anti-CGRP receptor/anti-PAC1 receptor bispecific hetero-immunoglobulin (bispecific antibody, human IgG1, kappa, lambda, N297G)
light 1: QSVLTQPPSVSAAPGQKVTISCSGSYSNIGRYSVSWYQQLPGTAPKLLIYDNNKRPSGIPDRFSGSKSGTSATLGITGLQTGDEADYYCGTWDSRLSAVVFGGGTKLTVLGQPKAAPSVTLFPPSSEELQANKATLVCLISDFYPGAVTVAWKADSSPVKAGVETTTPSKQSNNKYAAKSYLSLTPEQWKSHRSYSCQVTHEGSTVEKTVAPTECS
heavy 1: QVQLVESGGGVVQPGRSLRLSCAASGFTFSSFGMHWVRQAPGKGLEWVAVISFDGSIKYSVDSVKGRFTISRDNSKNTLFLQMNSLRAEDTAVYYCARDRLNYYESSGYYHYKYYGMAVWGQGTTVTVSSASTKGPSVFPLAPSSKSTSGGTAALGCLVKDYFPEPVTVSWNSGALTSGVHTFPAVLQSSGLYSLESVVTVPSSSLGTQTYICNVNHKPSNTKVDKKVEPKSCDKTHTCPPCPAPELLGGPSVFLFPPKPKDTLYITREPEVTCVVVDVSHEDPEVKFNWYVDGVEVHNAKTKPCEEQYGSTYRCVSVLTVLHQDWLNGKEYKCKVSNKALPAPIEKTISKAKGQPREPQVYTLPPSRKEMTKNQVSLTCLVKGFYPSDIAVEWESNGQPENNYKTTPPVLKSDGSFFLYSKLTVDKSRWQQGNVFSCSVMHEALHNHYTQKSLSLSPGK
light 2: EIVLTQSPATLSLSPGERATLSCRASKSVGRSLHWYQQKPGQAPRLLIKYASQSLSGIPARFSGSGSGTDFTLTISSLEPEDFAVYYCHQSSRLPFTFGPGTKVDIKRTVAAPSVFIFPPSDEQLKSGTASVVCLLNNFYPREAKVQWKVDNALQSGNSQESVTEQDSKDSTYSLESTLTLSKADYEKHKVYACEVTHQGLSSPVTKSFNRGEC
heavy 2: not shown

Cyno CGRP Receptor/Blank Cells Specific Binding [3]: 2.3 ratio
Mutant vs. 4E4.2 Parent Specific Binding Ratio [3]: 1.2 fold
Mutant vs. 4E4.2 Parent B/D Ratio [4]: 10.6 fold
Normalized Binding Signal/Display Signal (B/D) [4]: 1.62 ratio
Human CGRP Receptor/Blank Cells Specific Binding [5]: 10.4 ratio
Mutant vs. 4E4.2 Parent Specific Binding Ratio [5]: 1.3 fold
Mutant vs. 4E4.2 Parent B/D Ratio [6]: 1.6 fold
Normalized Binding Signal/Display Signal (B/D) [6]: 0.17 ratio
Mutant vs. 4E4.2 Parent B/D Ratio [7]: 3 fold
Normalized Binding Signal/Display Signal (B/D) [7]: 0.38 ratio
B2: anti-CGRP receptor variant 09, yeast-displayed Fab (Fab, V domains shown)
VH: B5 VH with S56E, K58D, S60Y, D105E
VL: B5 VL with T72A
notes: also called Variant Ab ID 09

Kd [8]: 28 nM
koff [8]: 0.00054 s⁻¹
kon [8]: 20000 M⁻¹ s⁻¹
B3: wild-type 4E4 anti-CGRP receptor monoclonal antibody (antibody, human IgG2, lambda, V domains shown)
VH: B5 VH with A54D
VL: B5 VL
notes: also called WT; 4E4 Ab

Cyno CGRP Receptor/Blank Cells Specific Binding [3]: 5.3 ratio
Mutant vs. 4E4.2 Parent Specific Binding Ratio [3]: 2.8 fold
Mutant vs. 4E4.2 Parent B/D Ratio [4]: 22 fold
Normalized Binding Signal/Display Signal (B/D) [4]: 3.38 ratio
Human CGRP Receptor/Blank Cells Specific Binding [5]: 9.5 ratio
Mutant vs. 4E4.2 Parent Specific Binding Ratio [5]: 1.2 fold
Mutant vs. 4E4.2 Parent B/D Ratio [6]: 1.5 fold
Normalized Binding Signal/Display Signal (B/D) [6]: 0.16 ratio
Mutant vs. 4E4.2 Parent B/D Ratio [7]: 11 fold
Normalized Binding Signal/Display Signal (B/D) [7]: 1.36 ratio
B4: anti-CGRP receptor variant 11, yeast-displayed Fab (Fab, V domains shown)
VH: QVQLVESGGGVVQPGRSLRLSCAASGFWFDTFGMHWVRQAPGKGLEWVAVISFAGEDTHYVDSVKGRFTISRDNSKNTLFLQMNSLRAEDTAVYYCARDRLNYYESYGYYGYHYYGMAVWGQGTTVTVSS
VL: QSVLTQPPSVSAAPGQKVTISCSGSRSNIGRYSVSWYQQLPGTAPKLLIYENMFRPRGIPDRFSGSKSGTSATLGITGLQTGDEADYYCGTWDYRMQAVVFGGGTKLTVLG
notes: also called Variant Ab ID 11

Cyno CGRP Receptor/Blank Cells Specific Binding [3]: 3 ratio
Mutant vs. 4E4.2 Parent Specific Binding Ratio [3]: 1.6 fold
Mutant vs. 4E4.2 Parent B/D Ratio [4]: 13.3 fold
Normalized Binding Signal/Display Signal (B/D) [4]: 2.04 ratio
Human CGRP Receptor/Blank Cells Specific Binding [5]: 20.7 ratio
Mutant vs. 4E4.2 Parent Specific Binding Ratio [5]: 2.6 fold
Mutant vs. 4E4.2 Parent B/D Ratio [6]: 0.9 fold
Normalized Binding Signal/Display Signal (B/D) [6]: 0.1 ratio
Mutant vs. 4E4.2 Parent B/D Ratio [7]: 3.3 fold
Normalized Binding Signal/Display Signal (B/D) [7]: 0.4 ratio
B8: anti-CGRP receptor variant 10, yeast-displayed Fab (Fab, V domains shown)
VH: B5 VH with T28F, S30G, F32Y, S56E, K58E, Y59H, S60Y, D105E
VL: B5 VL with T72A
notes: also called Variant Ab ID 10

Cyno CGRP Receptor/Blank Cells Specific Binding [3]: 2.2 ratio
Mutant vs. 4E4.2 Parent Specific Binding Ratio [3]: 1.1 fold
Mutant vs. 4E4.2 Parent B/D Ratio [4]: 2.2 fold
Normalized Binding Signal/Display Signal (B/D) [4]: 0.33 ratio
Human CGRP Receptor/Blank Cells Specific Binding [5]: 13.5 ratio
Mutant vs. 4E4.2 Parent Specific Binding Ratio [5]: 1.7 fold
Mutant vs. 4E4.2 Parent B/D Ratio [6]: 0.7 fold
Normalized Binding Signal/Display Signal (B/D) [6]: 0.08 ratio
Mutant vs. 4E4.2 Parent B/D Ratio [7]: 1 fold
Normalized Binding Signal/Display Signal (B/D) [7]: 0.12 ratio
B10: anti-CGRP receptor variant 14, yeast-displayed Fab (Fab, V domains shown)
VH: B5 VH with A54D, D105E
VL: B5 VL with T72A, R95W, L96H, S97R, A98V, V100T
notes: also called Variant Ab ID 14

Cyno CGRP Receptor/Blank Cells Specific Binding [3]: 4.2 ratio
Mutant vs. 4E4.2 Parent Specific Binding Ratio [3]: 2.2 fold
Mutant vs. 4E4.2 Parent B/D Ratio [4]: 2.7 fold
Normalized Binding Signal/Display Signal (B/D) [4]: 0.42 ratio
Human CGRP Receptor/Blank Cells Specific Binding [5]: 11.9 ratio
Mutant vs. 4E4.2 Parent Specific Binding Ratio [5]: 1.5 fold
Mutant vs. 4E4.2 Parent B/D Ratio [6]: 0.9 fold
Normalized Binding Signal/Display Signal (B/D) [6]: 0.1 ratio
Mutant vs. 4E4.2 Parent B/D Ratio [7]: 1.3 fold
Normalized Binding Signal/Display Signal (B/D) [7]: 0.16 ratio
B11: anti-CGRP receptor variant 15, yeast-displayed Fab (Fab, V domains shown)
VH: B5 VH with A54D, D105E
VL: B5 VL with T72A, S94W, R95W, L96R, S97K, V100I
notes: also called Variant Ab ID 15

Cyno CGRP Receptor/Blank Cells Specific Binding [3]: 4.8 ratio
Mutant vs. 4E4.2 Parent Specific Binding Ratio [3]: 2.5 fold
Mutant vs. 4E4.2 Parent B/D Ratio [4]: 9.8 fold
Normalized Binding Signal/Display Signal (B/D) [4]: 1.51 ratio
Human CGRP Receptor/Blank Cells Specific Binding [5]: 14.6 ratio
Mutant vs. 4E4.2 Parent Specific Binding Ratio [5]: 1.8 fold
Mutant vs. 4E4.2 Parent B/D Ratio [6]: 1 fold
Normalized Binding Signal/Display Signal (B/D) [6]: 0.11 ratio
Mutant vs. 4E4.2 Parent B/D Ratio [7]: 2.9 fold
Normalized Binding Signal/Display Signal (B/D) [7]: 0.35 ratio
B13: anti-CGRP receptor variant 13, yeast-displayed Fab (Fab, V domains shown)
VH: B5 VH with A54D, D105E
VL: B5 VL with S26R, N31R, N32R, Y33T, T72A
notes: also called Variant Ab ID 13
